Like-named read-outs stand apart in the source and are kept apart here.
B1: SBP-His6-G2BR^AUP1 (peptide)
chain: GGSSSSWARQESLQERKQALYEYARRRFTER
B2: SBP-His6-G2BR^Gp78 (peptide)
chain: GGSSSADERQRMLVQRKDELLQQARKRFLNKS
B3: Ube2G2 (untagged, from 6xHis-SUMO-Ube2G2) (enzyme)
chain: MAGTALKRLMAEYKQLTLNPPEGIVAGPMNEENFFEWEALIMGPEDTCFEFGVFPAILSFPLDYPLSPPKMRFTCEMFHPNIYPDGRVCISILHAPGDDPMGYESSAERWSPVQSVEKILLSVVSMLAEPNDESGANVDASKMWRDDREQFYKIAKQIVQKSLGL
B4: CUE-G2BR^AUP1 (AUP1 C-terminal region, aa292-410) (domain or fragment)
chain: SPDVQLATLAQRVKEVLPHVPLGVIQRDLAKTGCVDLTITNLLEGAVAFMPEDITKGTQSLPTASASKFPSSGPVTPQPTALTFAKSSWARQESLQERKQALYEYARRRFTERRAQEAD

Tests used:
Assay in all cases: SEC
[1] = target: B3
[2] = target: GST-Gp78c (aa309-643, RING-CUE-G2BR) (UniProt Q9UKV5 309-643)
Sequence of GST-Gp78c (aa309-643, RING-CUE-G2BR) (Q9UKV5 309-643): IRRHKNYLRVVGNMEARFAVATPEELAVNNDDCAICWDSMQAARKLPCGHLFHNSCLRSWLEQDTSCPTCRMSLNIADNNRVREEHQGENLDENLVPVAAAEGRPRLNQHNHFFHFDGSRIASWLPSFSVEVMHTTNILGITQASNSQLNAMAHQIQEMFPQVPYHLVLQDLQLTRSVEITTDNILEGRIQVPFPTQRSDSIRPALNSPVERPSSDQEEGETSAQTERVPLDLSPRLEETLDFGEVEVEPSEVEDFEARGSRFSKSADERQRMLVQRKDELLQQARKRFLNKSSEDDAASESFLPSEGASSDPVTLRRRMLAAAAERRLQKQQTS

[3] = target: B3; remark: listed apart in the source

Row | binding result [1] | Binder | further results
1 | binds | B1 | 
2 | binds | B2 | 
3 |  | B3 | binding result [2]: binds
4 |  | B4 | binding result [3]: binds

Reference: paper PMC12000298 (Communications Biology, 2025)
